Patent US12533420B2 (NBE-Therapeutics AG, priority 2018, dated 2026)

How the values were obtained:
Type in all cases: biochemical
[1] = tested on: FITC-labelled LPQTGE peptide and GGGK-biotin; assay: Optimization of sortase conjugation reaction conditions, HPLC-based assay; settings: initial rate (samples up to 3 hours), RP-HPLC, pH 8.5, NaCl, 25° C.
Method: The reaction was performed at 25° C. over a period of 24 hours (with 6 samplings in the period up to 3 hours), independently varying the following parameters: • pH over a range of 4 to 11 (using a mixture of boric and citric acid, along with phosphate buffer to achieved the desired pH), while the concentration of NaCl at 500 mM; • NaCl concentration over a range of 0 to 3 M, while maintaining the pH at 8.5 (using 50 mM of sodium phosphate to establish the desired pH).
The reaction was stopped by adding 95 μL of 0.05 M HCl per 5 μL of reaction mixture. Reaction products were loaded into XBridge C18 HPLC columns equilibrated in 0.1% NH4OH in 5% methanol. Elution was performed with a linear gradient from 0 to 100% of 0.1% NH4OH in 95% methanol over 10 mL at flow rate of 0.5 mL/min and a temperature of 30° C. Eluted peptides were detected by absorbance at 497 nm and fluorescence at 522 nm (excitation at 497 nm) and peak areas were quantified.

[2] = tested on: self-quenching peptide Dabcyl-QALPQTGET-Edans and triglycine; assay: Optimization of sortase conjugation reaction conditions, fluorescence assay; settings: initial rate, temperature varied 15 to 45° C., pH 8.5, 500 mM NaCl
Method: Reactions were performed over a period of 1 hour, varying the reaction temperature between 15 and 45° C. and measuring fluorescence over time (using a plate reader or fluorescence spectrometer, with excitation at 350 nm and emission at 495 nm).
Initial rate of sortase F-mediated ligation at different temperatures was evaluated based on regression of the fluorescence over time.

[3] = tested on: FITC-labelled LPXTGE, DNPNTGDE, ENPXTNAGT, KLPXTASN and ALAXTGSE peptides; assay: Sortase activity assay, gel-based, FITC-labelled peptide substrates; settings: conjugation to 60 kDa Gly6 protein, 25° C., 6 to 24 hours, FITC emission
Method: The reaction was performed at 25° C. for 6 to 24 hours, and stopped by addition of reducing SDS-PAGE loading buffer, followed by 5 min. incubation at 95° C. Reaction products were loaded on a 12% SDS-PAGE gel and run according to standard protocols. Labelled reaction products were visualized by FITC emission using the FLA-9000 Imager from Fujifilm, and quantified using ImageJ software.

B1: sortase F: recombinant sortase F enzyme from P. acnes KPA171202, with N-terminal MS peptide and C-terminal TwinStrep-comprising tag (protein)
chain: TTTSSTSGIPAASAAKKGPVPAGCMKTPKPIVPVKYSIDGMKASAKVLSRGVDETGAAGAPPKNDPSSMAWFNQGPKIGSDKGNAVLTAHTYHKGGALGNRLYDKNNGIKKGDIIRLTDKTGQTVCYRYDHDTKVMVKDYNPNSNILYDNNGPAQAAIVICWDYVKKTGEFDSRVIFYTYPVA
modifications: Propionibacterium acnes
- salt concentration optimum for initial sortase F activity rate [1]: above 250 mM
- temperature above which the reaction rate decreased [2]: above 40 °C
- temperature optimum of sortase F activity rate [2]: about 25 °C
- substrate peptide on which the enzyme is active [3]: principally active on the LPXTGE
